These results are taken from patent US20060241031A1 (priority 2003, published 2006).

Like-named read-outs stand apart in the source and are kept apart here.

Test [1] deals with T1, LL-37 (Homo sapiens, UniProt P49913).
T1 construct: LL-37, […]; (Mw 4492) was synthesized by Innovagen AB; purchased Innovagen AB, Lund, Sweden; host or cells: chemical synthesis
T1 sequence (P49913 134-170 limits assumed): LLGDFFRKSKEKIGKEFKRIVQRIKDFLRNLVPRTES
The test is described as follows: Indirect ELISA, SIC homologues coated, binding of LL-37. The note with it: purified SIC homologues on microtiter plates; M1 protein negative control. (In general: ELISA stands for enzyme-linked immunosorbent assay.)

The target of another test is T2, α-defensin (Homo sapiens, UniProt P59665).
T2 construct: α-defensin (HNP-1), […]; (Mw 3442) was purchased from Sigma; purchased Sigma
T2 sequence (P59665 65-94 limits assumed): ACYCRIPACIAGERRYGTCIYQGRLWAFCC
The test is described as follows: Antimicrobial assay, inhibition of bactericidal effect of α-defensin. The test is classed as cell-based.

Test [2] deals with T1, LL-37. The test is described as follows: Antimicrobial assay, inhibition of bactericidal effect of LL-37. The class given is cell-based.
Method: (§1) Antimicrobial assay—AP1 bacteria were grown to mid-log phase in TH broth, washed and diluted in 10 mM Tris-HCl, pH 7.5, containing 5 mM glucose. 50 μl bacteria (2×10^6 colony forming units (cfu)/ml) were incubated together with α-defensin or LL-37 at various concentrations for 2 h at 37° C. In subsequent experiments, bacteria were incubated with α-defensin and LL-37 at a concentration of 448 nM together with different concentrations of protein SIC or M1 protein and the reactions were carried out for 2 h (α-defensin) or 1 h (LL-37). To quantitate the bactericidal activity serial dilutions of the incubation mixtures were plated on TH agar, incubated overnight at 37° C., and the number of cfus were determined.
For test [3], the system named is AP1 bacteria.
Method: as §1
Test [4] deals with protein SIC. The note with it: peptides on Immobilon filters probed with 125I-labelled SIC from M1 strain AP1.
Method: Slot-binding and SDS-polyacrylamide gel electrophoresis—Peptides were applied to polyvinylidene difluoride (PVDF) membranes (Immobilon, Millipore) using a Milliblot-D system (Millipore). Membranes were blocked in TBS (0.05 M Tris-HCl, pH 7.5, 0.15 M NaCl) containing 3% bovine serum albumin (SA), incubated with ^125I-labelled protein SIC for 3 h, and washed with TBS containing 0.05% Tween-20. Autoradiography was carried out using Kodak x-Omat AR films and regular intesifying screens.
Test [5] relates to AP1 bacteria. The source holds these as a separate data set.
Method: Bacterial growth assay—AP1 bacteria were grown to stationary phase in TH broth. 200 μl of TH was inoculated with 5 μl of the bacterial suspension in 96-well plates (Falcon) at 37° C. At early logarithmic phase various amounts of LL-37 was added and growth was followed by measuring the absorbance at 490 nm (using a BioRad 550 microplate reader). The amount of protein SIC in the growth medium was estimated by ELISA (see below).
A further test concerns M1 protein. Put plainly: Indirect ELISA, binding of antibacterial peptides to coated M1 protein (control). Also noted: species or system S. pyogenes. The following applies: M1 protein applied to plastic wells as control.
The test system of test [6] is protein SIC. The following applies: SIC applied to plastic wells, peptide added, detected with antibodies.
A further test concerns the target LL-37 (human). Put plainly: cell-based or functional assay.

Method for α-defensin: as §1

With “SIC: streptococcal inhibitor of complement, purified from S. pyogenes strain AP1 of serotype M1”, in the test with LL-37 [1], the “binding of LL-37 (ELISA, FIG. 3B)” value is “showed binding of LL-37 clearly above M1 protein”. Also, the “potency in blocking α-defensin and LL-37 relative to the M12 and M55 homologues” value with α-defensin (from inhibition curves FIG. 3C, both peptides at 448 nM) was 5-10 times. In addition, the “blocking of antibacterial activity of α-defensin” value with α-defensin (α-defensin 0.448 μM, AP1 bacteria, 2 h, M1 protein at a maximum of 0.72 μM) is recorded as “blocks”. In addition, in the test with LL-37 [2] (LL-37 0.448 μM, AP1 bacteria, M1 protein at a maximum of 0.72 μM), the “blocking of antibacterial activity of LL-37” value is listed as “blocks”. Moreover, the “efficiency in blocking LL-37 relative to α-defensin” value in the test with LL-37 [2] (from inhibition curves, FIG. 2 right panel) was “about ten”.
For “human antibacterial peptide LLGDFFRKSKEKIGKEFKRIVQRIKDFLRNLVPRTES (Mw 4492), synthesized by Innovagen AB [LL-37]”, the “concentration required for 100% killing” value with AP1 bacteria [3] (AP1 washed and resuspended in buffer, no SIC present, 2 h 37° C.) is recorded as “approximately 0.4 μM”. Also, the EC50 was determined as 0.2 µM in the test with AP1 bacteria [3] (read-out: concentration of LL-37 required to kill 50% of the bacteria, bacteria washed to remove SIC before addition of LL-37) and 11.1 µM in the test on AP1 bacteria [5] (read-out: concentration of LL-37 required to kill 50% of the bacteria, AP1 at early logarithmic growth phase, SIC 4-5 μg/ml growth medium). Moreover, the “interaction with 125I-labelled SIC (slot-binding, FIG. 1A)” value with protein SIC [4] is on record as “interacts”. Further, the “fold increase of concentration to kill 50% with secreted SIC versus washed bacteria” value in the test with AP1 bacteria [5] (11.1 μM compared to 0.2 μM) is “more than 50 times”. Besides, the “interaction with M1 protein (ELISA, FIG. 1B)” value with M1 protein was “at background level”. Further, in the test on protein SIC [6], the “affinity for SIC (ELISA, FIG. 1B)” value is listed as “showed affinity”.
In the test with LL-37 (human), “protein SIC purified from S. pyogenes strain AP1 (serotype M1)” had an efficiency in blocking LL-37 against blocking α-defensin, from inhibition curves of 10 times and a fold rise of the LL-37 concentration required to kill 50% of the bacteria, with secreted SIC against washed bacteria of 50 times.
